Test results as given in patent US20260152555A1 (HUAHUI HEALTH, published 2026).

How the values were obtained:
[1] = target: human CD112R, full length, expressed on cells (YTS-hCD112R; Jurkat-NFAT-luc-hCD112R) (human) (UniProt Q6DKI7); assay: cell-based or functional assay
[2] = target: T1, hCD112R-ECD-His6-Avi (human, UniProt Q6DKI7 42-172, biotinylated (Avi tag) in the ELISA assays); assay: SPR (Biacore T200), multi-cycle; 733-mIgG2a captured on Protein A/G, hCD112R-ECD-His6-Avi injected; 1:1 Langmuir
T1 construct: range 42-172; Expressed in HEK 293F cells; Analyte in SPR, and captured on streptavidin in ELISA; also called biotinylated hCD112R-ECD-His6-Avi; not shown: C-terminal His6-Avi tag
T1 sequence (looked up): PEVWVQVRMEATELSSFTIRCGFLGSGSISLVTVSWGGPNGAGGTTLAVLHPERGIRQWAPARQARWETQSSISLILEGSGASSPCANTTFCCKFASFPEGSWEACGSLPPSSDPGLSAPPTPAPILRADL
Experimental: (§1) Protein A/G (Thermo Fisher) was covalently attached to surfaces of a CM5 sensor chip using an amine coupling kit (GE Healthcare). […] Binding kinetics were evaluated using a 1:1 Langmuir binding model. The association rates (ka), dissociation rates (kd), and affinity constants (KD) were calculated using Biacore T200 evaluation software.

[3] = target: T2, human CD112R, full length, expressed on cells (YTS-hCD112R; Jurkat-NFAT-luc-hCD112R) (human, UniProt Q6DKI7 42-326); assay: FACS competition on YTS-hCD112R cells against hCD112-ECD-hFc, ligand detected with goat anti-human IgG-FITC
T2 construct: whole, on cells; also called PVRIG; YTS-hCD112R cells
T2 sequence (looked up): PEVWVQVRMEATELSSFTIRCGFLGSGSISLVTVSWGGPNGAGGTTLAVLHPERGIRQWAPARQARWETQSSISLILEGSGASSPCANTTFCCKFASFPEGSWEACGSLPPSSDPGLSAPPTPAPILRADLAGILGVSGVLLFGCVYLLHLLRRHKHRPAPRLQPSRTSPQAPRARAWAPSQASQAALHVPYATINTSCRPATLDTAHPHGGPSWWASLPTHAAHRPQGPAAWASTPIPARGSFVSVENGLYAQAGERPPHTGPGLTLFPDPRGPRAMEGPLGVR
Text: (§2) Then cells were washed three times with PBS containing 0.5% BSA. Ligands binding to cells were detected by adding goat anti-human IgG-FITC Ab (Pierce-Thermo Fisher Scientific).

[4] = target: T1, hCD112R-ECD-His6-Avi; assay: SPR (Biacore T200), multi-cycle, 733-mIgG2a captured by Protein A/G, hCD112R-ECD-His6-Avi as analyte, 1:1 Langmuir model
Experimental: as §1

[5] = target: T2, human CD112R, full length, expressed on …; assay: FACS-based competition on YTS-hCD112R cells, competitor hCD112-ECD-hFc
Text: as §2

[6] = target: T1, hCD112R-ECD-His6-Avi; assay: SPR (Biacore T200), multi-cycle; 733-mIgG2a captured on Protein A/G, hCD112R-ECD-His6-Avi injected; 1:1 Langmuir (the text prints the rounded 0.2 nM)
Experimental: as §1

[7] = target: T3, hCD112-ECD-hFc (extracellular domain of hCD112 fused to the Fc domain of human IgG1) (human, UniProt Q92692 32-360); assay: SPR (Biacore T200), single injection; hCD112R-ECD-mFc variant captured on anti-mFc Ab, hCD112-ECD-hFc injected
T3 construct: extracellular domain; also called hCD112 ligand; not shown: Fc domain of human IgG1
T3 sequence (looked up): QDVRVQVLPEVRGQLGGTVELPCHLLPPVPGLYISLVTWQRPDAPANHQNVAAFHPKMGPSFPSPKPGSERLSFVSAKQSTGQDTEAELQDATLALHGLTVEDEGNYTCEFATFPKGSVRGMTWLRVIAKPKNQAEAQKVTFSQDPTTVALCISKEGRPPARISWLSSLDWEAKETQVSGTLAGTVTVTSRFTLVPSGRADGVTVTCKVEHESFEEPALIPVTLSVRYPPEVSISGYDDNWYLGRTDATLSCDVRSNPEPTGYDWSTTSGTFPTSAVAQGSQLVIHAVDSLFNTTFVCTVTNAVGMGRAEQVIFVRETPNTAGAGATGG
Experimental: (§3) Kinetic analyses of the bindings of WT or mutated hCD112R-ECD-mFc proteins to H733 and hCD112-ECD were performed on a Biacore T200 instrument (Biacore, GE Healthcare). For the single-cycle SPR analysis, anti-mFc Ab (Thermo Fisher) was covalently attached to surfaces of a CM5 sensor chip using an amine coupling kit (GE Healthcare). WT or mutated hCD112R-ECD mFc fusion proteins were captured on the chip and H733-hIgG4 or hCD112-ECD-hFc were then injected. For the multi-cycle SPR analysis, anti-hFc Ab (Thermo Fisher) was covalently attached to surfaces of a CM5 sensor chip using an amine coupling kit (GE Healthcare). H733-hIgG4 or hCD112-ECD-hFc protein was captured on the chip and 2-fold serially diluted WT or mutated hCD112R-ECD-mFc proteins (3.125-100 nM) were then injected. Binding kinetics were evaluated using a 1:1 Langmuir binding model. The association rates (ka), dissociation rates (kd), and affinity constants (KD) were calculated using Biacore T200 evaluation software.

[8] = target: T3, hCD112-ECD-hFc (extracellular domain of …); assay: SPR (Biacore T200), multi-cycle; hCD112-ECD-hFc captured on anti-hFc Ab, hCD112R-ECD-mFc WT injected (3.125-100 nM); 1:1 Langmuir [Cont') C]
Experimental: as §3

[9] = target: T3, hCD112-ECD-hFc (extracellular domain of …); assay: SPR (Biacore T200), multi-cycle; hCD112-ECD-hFc captured on anti-hFc Ab, hCD112R-ECD-mFc variant injected (3.125-100 nM); 1:1 Langmuir [Cont') C]
Experimental: as §3

[10] = target: T3, hCD112-ECD-hFc (extracellular domain of …); assay: SPR (Biacore T200), multi-cycle; hCD112-ECD-hFc captured on anti-hFc Ab, hCD112R-ECD-mFc variant injected [Cont') C]
Experimental: as §3

B1: COM701 (humanized anti-hCD112R Ab developed by the Compugen Company, hIgG4) (antibody, from another filing, V domains shown)
VH: QVQLVQSGAEVKKPGASVKVSCKASGYTFTDYNINWVRQAPGQGLEWMGYIYPYIGGSGYAQKFQGRVTMTRDTSTSTVYMELSSLRSEDTAVYYCAREDKTARNAMDYWGQGTLVTVSS
VL: DIQMTQSPSSLSASVGDRVTITCRVSENIYSNLAWYQQKPGKAPKLLIYEATNLAEGVPSRFSGSGSGTDFTLTISSLQPEDFATYYCQHFWGTPYTFGQGTKLEIK
**Q.** For B1, which EC50 of luciferase production, Jurkat-NFAT-luc-hCD112R reporter cells with CHO-OKT3scFv hCD112 cells [1] is on record?
**A.** 0.69 µg/mL

B2: anti-hCD112R mAb 733 (733-mIgG2a) (antibody, V domains shown)
VH: QVQLQQSGAELVRPGTSVKVSCKASGYAFTNYLIEWLKQRPGQGLEWIGVINPGHGFTNYNEKFKGKATLTADKSSSTAYMQLSSLTSDDSAVYFCARGEWDWYFDVWGAGTTVTVSS
VL: DIVMTQSQKFMSTSVGDRVSITCKASQNVGTAVAWYQQKPGQSPKLLIYSTSNRYTGVPDRFTGSGSGTDFTLTISNLQSEDLADYFCQQCSSYPFTFGSGTKLEIK
notes: VH and VL were cloned onto the constant regions of mouse IgG2a heavy and light chains (full-length mIgG2a, made in HEK 293F)
**Q.** What does the source list for B2?
**A.** koff [2]: 0.000888 s⁻¹; kon [2]: 4.49e+06 M⁻¹ s⁻¹; IC50 (read off the curve) [3]: ~2 µg/mL; Kd [4]: 0.2 nM; IC50 [5]: 0.29 µg/mL; Kd [6]: 0.198 nM

B3: S67P (Fc fusion, human, UniProt Q6DKI7 42-172, looked up)
Fc fusion chain: PEVWVQVRMEATELSSFTIRCGFLGPGSISLVTVSWGGPNGAGGTTLAVLHPERGIRQWAPARQARWETQSSISLILEGSGASSPCANTTFCCKFASFPEGSWEACGSLPPSSDPGLSAPPTPAPILRADL
notes: extracellular domain, amino acids 42-172; also called hCD112R-ECD-mFc S67P variant
**Q.** Does B3 bind [7]?
**A.** binds

B4: hCD112R-ECD-mFc WT (Fc fusion, human, UniProt Q6DKI7 42-172, looked up)
chain: PEVWVQVRMEATELSSFTIRCGFLGSGSISLVTVSWGGPNGAGGTTLAVLHPERGIRQWAPARQARWETQSSISLILEGSGASSPCANTTFCCKFASFPEGSWEACGSLPPSSDPGLSAPPTPAPILRADL
notes: range 42-172; also called WT hCD112R; wildtype (WT) hCD112R protein; not shown: Fc domain of mouse IgG2a
**Q.** Which results are given for B4?
**A.** Kd [8]: 64.3 nM; koff [8]: 0.00514 s⁻¹; kon [8]: 80000 M⁻¹ s⁻¹

B5: H92A (Fc fusion, human, UniProt Q6DKI7 42-172, looked up)
Fc fusion chain: PEVWVQVRMEATELSSFTIRCGFLGSGSISLVTVSWGGPNGAGGTTLAVLAPERGIRQWAPARQARWETQSSISLILEGSGASSPCANTTFCCKFASFPEGSWEACGSLPPSSDPGLSAPPTPAPILRADL
notes: extracellular domain, amino acids 42-172; alanine-scanning variant; also called hCD112R-ECD-mFc H92A variant
**Q.** How did the Kd [9] turn out when B5 was run?
**A.** 72.1 nM

**Q.** What about the koff [9] of the same binder?
**A.** 0.00532 s⁻¹

**Q.** What about the kon [9] of the same binder?
**A.** 73700 M⁻¹ s⁻¹

B6: L72A (Fc fusion, human, UniProt Q6DKI7 42-172, looked up)
Fc fusion chain: PEVWVQVRMEATELSSFTIRCGFLGSGSISAVTVSWGGPNGAGGTTLAVLHPERGIRQWAPARQARWETQSSISLILEGSGASSPCANTTFCCKFASFPEGSWEACGSLPPSSDPGLSAPPTPAPILRADL
notes: extracellular domain, amino acids 42-172; alanine-scanning variant; also called hCD112R-ECD-mFc L72A variant
**Q.** Does B6 bind [10]?
**A.** no binding

B7: E94A (Fc fusion, human, UniProt Q6DKI7 42-172, looked up)
Fc fusion chain: PEVWVQVRMEATELSSFTIRCGFLGSGSISLVTVSWGGPNGAGGTTLAVLHPARGIRQWAPARQARWETQSSISLILEGSGASSPCANTTFCCKFASFPEGSWEACGSLPPSSDPGLSAPPTPAPILRADL
notes: extracellular domain, amino acids 42-172; alanine-scanning variant; also called hCD112R-ECD-mFc E94A variant
**Q.** B7 was tested. Which Kd [9] did it give?
**A.** 112 nM

**Q.** And the koff [9]?
**A.** 0.0126 s⁻¹

**Q.** What about the kon [9] of the same binder?
**A.** 112000 M⁻¹ s⁻¹
